Assay [1] has as its target T1, human anterior gradient protein 2 (AGR2) (human, UniProt O95994 21-175).
T1 chain: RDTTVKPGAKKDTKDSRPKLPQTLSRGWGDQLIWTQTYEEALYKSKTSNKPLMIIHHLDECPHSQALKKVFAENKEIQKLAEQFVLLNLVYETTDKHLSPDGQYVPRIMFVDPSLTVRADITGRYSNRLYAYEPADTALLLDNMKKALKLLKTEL
Kind of assay: competitive ELISA.

Assay [2] deals with T2, human anterior gradient protein 2 (AGR2) (human, UniProt O95994 21-175, limits assumed).
T2 construct: also called hAG-2; antigen AGR2
T2 sequence (looked up): T1 chain
The assay is described as follows: competitive ELISA, AGR2 coated, antibody pre-incubated with soluble antigen. The method, then:
The generated humanized antibody 18A4Hu1 was subjected to an affinity analysis and compared with the murine 18A4 antibody. Specifically, 3 ng/μl antigen AGR2 was used for coating the 96 well ELISA plates at 100 μl per well and blocked with blocking solution. Antibodies at 0.1 ng/μl were mixed 1:1 with antigens of different concentrations and incubated at 37° C. overnight, wherein the antigen concentration was serially diluted from 1000 nM. 100 μl incubated mixture was separately added into different ELISA plates and incubated at 37° C. for 1 hour. After washing the ELISA plates, the HRP-labeled secondary antibodies against human or mouse were added and incubated at 37° C. for 1 hour. Color development solutions A and B were added, each at 80 μl, and color was allowed to develop at 37° C. for 30 min. The reaction was stopped by adding 50 μl stopping solution and absorbance was determined at OD 450. Affinity plate was depicted and the affinities of the antibodies were calculated.

The target in assay [3] is T3, AGR2 deletion mutant lacking the epitope … (UniProt O95994 21-175).
T3 construct: Made from the pcDNA3-AGR2-His eukaryotic expression plasmid by deletion mutagenesis; also called the mutated AGR2 protein; not shown: His tag of the pcDNA3-AGR2-His plasmid
T3 sequence (looked up): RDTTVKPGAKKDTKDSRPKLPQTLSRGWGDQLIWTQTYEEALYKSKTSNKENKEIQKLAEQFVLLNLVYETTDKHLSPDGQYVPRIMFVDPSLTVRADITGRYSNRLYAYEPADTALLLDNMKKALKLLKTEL
Kind of assay: western blot. On the procedure:
The amino sequence of the monoclonal antibody corresponding to the epitopes of the antigen AGR2 was determined (see FIG. 23). The procedure was as followed: RNA was extracted from MCF cells. mRNA of AGR2 was obtained by PCR and reverse transcribed to obtain cDNA. The pcDNA3-AGR2-His eukaryotic expression plasmid was constructed and AGR2 was subjected to mutation by deletion. The upstream primer for the mutation was 5′-[…]-3′, and the downstream primer was 5′-[…]-3′. Such a mutation led to the deletion of the epitope […]. […] Then AGR2 was subjected to point mutation. The upstream primer for the mutation was 5′-[…]-3′, and the downstream primer was 5′-[…]-3′, wherein the “C” in the PDI active site “CXXS” was mutate to “S”. […] It was determined that the monoclonal antibody specifically bound to the epitope “[…]”, and may inhibit the PDI activity.

What is called Kd is the free concentration of one partner at which half of the binding sites on the other are occupied at equilibrium, for simple one-to-one binding. A lower Kd goes with tighter binding.

B1: humanized antibody 18A4Hu1 (antibody, V domains shown)
VH: QVQLVQSGAEVKKPGASVKVSCKASGYTFTDYNMDWVRQAPGQGLEWIGDINPNYDTTSYNQKFKGKATLTVDKSTSTAYMELSSLRSEDTAVYYCARSMMGYGSPMDYWGQGTLVTVSS
VL: EIVLTQSPATLSLSPGERATLSCRASKSVSTSGYSYMHWYQQKPGQAPRLLIYLASNLESGIPARFSGSGSGTDFTLTISRLEPEDFAVYYCQHIRELPRTFGGGTKLEIK
With B1, the Kd in assay [1] is 3.02 nM. Further, in assay [2], the binding result was “binds”.

B2: murine anti-human AGR2 protein monoclonal antibody 18A4 (antibody, V domains shown)
VH: EVQLQQFGAELVKPGASVKISCKASAYTFTDYNMDWVKQSHGKSLEWIGDINPNYDTTSYNQKFKGKATLTVDKSSSTAYMELRSLTSEDTAVYYCARSMMGYGSPMDYWGQGTSVTVSS
VL: DIVLTQSPASLTVSLGQRATISCRASKSVSTSGYSYMHWYQRKPGQPPKLLIYLASNLESGVPARFSGSGSGTDFTLNIHPVEGEDAATYYCQHIRELPRTFGGGTKLEIK
notes: also called murine 18A4; the monoclonal antibody
As for B2, the binding result in assay [3] was “no binding”. In addition, the Kd in assay [1] is 1.7 nM.

These data come from US20170240651A1 (Sanofi, published 2017).
